Read-outs that look alike come from different tables or passages of the source. Primed or numbered codes have the meaning given here. Ends that are not written are not given here. Biotin′ = not defined here
Experiments:
KRPPGFSPFR-biotin [1] = target: T1, KRPPGFSPFR-biotin; assay: Biacore, biotin-peptide on SA chip;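 on kon: purified antibodies injected as twofold dilutions from 0.1 to 10 nM in HBS-EP over streptavidin-captured biotinylated BKR1 or BKR2 ligand peptides, with a random-peptide flow cell as reference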
T1 construct: also called KD-b; KD-biotin
T1 peptide: KRPPGFSPFR-biotin
Description: (§1) For antibody binding kinetics, the instruments used were the BIACORE 2000 or BIACORE 3000 (GE Healthcare), designed for biomolecular interaction analysis (BIA) in real time. The sensor chip used was SA chip (GE Healthcare) with streptavidin covalently immobilized on a carboxymethylated dextran matrix. Each sensor chip has four parallel flow cells (Fc). Every biotinylated BKR1 or BKR2 ligand peptides were immobilized to one of the flow cells 2 to 4 (Fc2 to Fc4) in the SA chip for binding dissociation rate screening and selectivity screening. Flow cell 1 (Fc1) was reserved and immobilized with a random peptide (biotinylated at one terminus) with equal or close peptide length in comparison to the testing ligand peptides as the negative control. In screening assays, cell culture supernatants of the hybridoma clones selected through primary screening of transiently expressed humanized variants were injected over immobilized peptides. Hybridoma cell culture media was also injected over the chip surface as blank to establish a baseline. After subtracting signals of Fc1 and blank buffer runs, the dissociation rate of the antibodies from the supernatants to each peptide was analyzed and ranked using BIAevaluation software. […] In kinetics analysis, the corresponding biotin-peptides identified in screening for the testing antibody were immobilized in Fc2 to Fc4 while Fc1 with a random peptide used as reference cell. Each purified antibody selected from screenings were made into a series of two fold dilutions in running buffer (1×HBS-EP buffer, GE Healthcare) between 0.1 to 10 nM. Binding association rate, dissociation rate and the overall affinity were calculated in BIAevaluation.

RRPPGFSPF-biotin [2] = target: T2, RRPPGFSPF-biotin (mouse); assay: Biacore, biotin-peptide on SA chip;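 on kon: purified antibodies injected as twofold dilutions from 0.1 to 10 nM in HBS-EP over streptavidin-captured biotinylated BKR1 or BKR2 ligand peptides, with a random-peptide flow cell as reference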
T2 construct: also called DAKLP-b; DAKLP-biotin
T2 peptide: RRPPGFSPF-{Biotin′}
Description: as §1

…-biotin [3] = target: T3, …-biotin (C-terminal biotin); assay: Biacore, biotin-peptide on SA chip;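 on kon: purified antibodies injected as twofold dilutions from 0.1 to 10 nM in HBS-EP over streptavidin-captured biotinylated BKR1 or BKR2 ligand peptides, with a random-peptide flow cell as reference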
T3 construct: also called DAKD-b; DAKD-biotin
Description: as §1

RRPPGFSPFR-biotin [4] = target: T4, RRPPGFSPFR-biotin (mouse); assay: Biacore, biotin-peptide on SA chip;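 on kon: purified antibodies injected as twofold dilutions from 0.1 to 10 nM in HBS-EP over streptavidin-captured biotinylated BKR1 or BKR2 ligand peptides, with a random-peptide flow cell as reference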
T4 construct: also called KLP-b; KLP-biotin
T4 peptide: RRPPGFSPFR-biotin
Description: as §1

[5] = target: T5, desArg10kallidin like peptide (mouse); assay: cell-based or functional assay
T5 peptide: RRPPGFSPF

desArg10kallidin [6] = assay: cell-based or functional assay
kallidin [7] = target: T6, kallidin; assay: cell-based or functional assay
T6 peptide: KRPPGFSPFR

desArg10kallidin [8] = assay: cell-based or functional assay; remark: listed apart in the source
kallidin [9] = target: T6, kallidin; assay: cell-based or functional assay
KRPPGFSPFR-biotin [10] = target: T1, KRPPGFSPFR-biotin; assay: Biacore, biotin-peptide on SA chip
Description: as §1

RRPPGFSPF-biotin [11] = target: T2, RRPPGFSPF-biotin; assay: Biacore, biotin-peptide on SA chip
Description: as §1

…-biotin [12] = target: T3, …-biotin; assay: Biacore, biotin-peptide on SA chip; remark: listed apart in the source
Description: as §1

RRPPGFSPFR-biotin [13] = target: T4, RRPPGFSPFR-biotin; assay: Biacore, biotin-peptide on SA chip
Description: as §1

biotin-RPPGFSPF = target: T7, biotin-RPPGFSPF (N-terminal biotin); assay: ELISA, biotin-peptide on streptavidin plate
T7 construct: also called b-DABK; biotin-DABK

RPPGFSPF-biotin = target: T8, RPPGFSPF-biotin (C-terminal biotin); assay: ELISA, biotin-peptide on streptavidin plate
T8 construct: also called DABK-b

KRPPGFSPFR-biotin [14] = target: T1, KRPPGFSPFR-biotin; assay: Biacore, biotin-peptide on SA chip
…-biotin [15] = target: T3, …-biotin; assay: Biacore, biotin-peptide on SA chip; remark: listed apart in the source
…-biotin [16] = target: T9, …-biotin (C-terminal biotin); assay: ELISA, biotin-peptide on streptavidin plate
T9 construct: also called BK-b

[17] = target: T10, biotin-… (N-terminal biotin); assay: ELISA, biotin-peptide on streptavidin plate
T10 construct: also called b-BK

Binder | Kd (KRPPGFSPFR-biotin [1]) | koff (KRPPGFSPFR-biotin [1]) | kon (KRPPGFSPFR-biotin [1]) | Kd (RRPPGFSPF-biotin [2]) | koff (RRPPGFSPF-biotin [2]) | kon (RRPPGFSPF-biotin [2]) | Kd (…-biotin [3]) | koff (…-biotin [3]) | kon (…-biotin [3]) | Kd (RRPPGFSPFR-biotin [4]) | koff (RRPPGFSPFR-biotin [4]) | kon (RRPPGFSPFR-biotin [4]) | Mean Molar Ratio, ligand depletion, calcium mobilization in HEK mBKR1 cells [5] | Mean Molar Ratio, ligand depletion, calcium mobilization in HEK mBKR1 cells (desArg10kallidin [6]) | Mean Molar Ratio, ligand depletion, calcium mobilization in MRC5 cells (kallidin [9]) | Kd (KRPPGFSPFR-biotin [10]) | koff (KRPPGFSPFR-biotin [10]) | Kd (…-biotin [12]) | koff (…-biotin [12]) | also measured
humanized F151 variant HC2a/LC2a (antibody, human IgG1, V domains shown, also called LC2axHC2a) VH: QIQLVQSGAEVKKPGASVKVSCKASGYSFTDYNIYWVKQSPGKGLEWIGYFDPYNGNTGYNQKFRGKATLTVDKSSSTAYMHLSSLTSEESAVYYCANYYRYDDHAMDYWGQGTSVTVSS VL: DIVMTQSPSSLSASVGDRVTISCKSSQSLLYSSNQKNYLAWYQQKPGKSPKPLIYWASTRESGVPDRFSGSGSGTDFTLTISSVQAEDLATYYCQQYYSYPWTFGGGTKLEIK | 0.00871 nM | 6.12e-06 s⁻¹ | 703000 M⁻¹ s⁻¹ | 0.0138 nM | 5.67e-06 s⁻¹ | 410000 M⁻¹ s⁻¹ | 0.0183 nM | 1.22e-05 s⁻¹ | 666000 M⁻¹ s⁻¹ | 0.0434 nM | 2.68e-05 s⁻¹ | 615000 M⁻¹ s⁻¹ | – | – | – | – | – | – | – | –
humanized F151 variant HC2c/LC2b (antibody, human IgG1, V domains shown, also called LC2bxHC2c) VH: QIQLVQSGAEVKKPGASVKVSCKASGYSFTDYNIYWVKQSPGKGLEWIGYFDPYNGNTGYNQKFRGKATLTVDKSSSTAYMHLSSKTSEESAVYYCANYYRYDDHAMDYWGQGTSVTVSS VL: DIVMTQSPSSLSASVGDRVTISCKSSQSLLYSSNQKNYLAWYQQKPGKSPKPLIYWASTRESGVPDRFSGSGSGTDFTLTISSVQAEDKATYYCQQYYSYPWTFGGGTKLEIK | 0.0174 nM | 9.08e-06 s⁻¹ | 564000 M⁻¹ s⁻¹ | 0.0121 nM | 1.1e-05 s⁻¹ | 903000 M⁻¹ s⁻¹ | 0.0901 nM | 4.34e-05 s⁻¹ | 481000 M⁻¹ s⁻¹ | 0.0198 nM | 1.02e-05 s⁻¹ | 516000 M⁻¹ s⁻¹ | – | – | – | – | – | – | – | –
humanized F151 variant HC2b/LC2a (antibody, human IgG1, V domains shown, also called LC2axHC2b) VH: QIQLVQSGAEVKKPGASVKVSCKASGYSFTDYNIYWVKQSPGKGLEWIGYFDPYNGNTGYNEKFRGKATLTVDKSSSTAYMHLSSLTSEESAVYYCANYYRYDDHAMDYWGQGTSVTVSS VL: DIVMTQSPSSLSASVGDRVTISCKSSQSLLYSSNQKNYLAWYQQKPGKSPKPLIYWASTRESGVPDRFSGSGSGTDFTLTISSVQAEDLATYYCQQYYSYPWTFGGGTKLEIK | 0.00472 nM | 1.66e-06 s⁻¹ | 375000 M⁻¹ s⁻¹ | 0.0297 nM | 1.3e-05 s⁻¹ | 446000 M⁻¹ s⁻¹ | 0.0257 nM | 1.05e-05 s⁻¹ | 417000 M⁻¹ s⁻¹ | 0.00576 nM | 2.2e-06 s⁻¹ | 401000 M⁻¹ s⁻¹ | – | – | – | – | – | – | – | –
humanized F151 variant HC1/LC1 (antibody, V domains shown, also called LC1xHC1) VH: EIQLVQSGPEVKKPGASVKVSCKASGYSFTDYNIYWVKQSPGKSLEWIGYFDPYNGNTGYNQKFRGKATLTVDKSSSTAFMHLSSLTSEDSAVYYCANYYRYDDHAMDYWGQGTSVTVSS VL: DIVMSQSPSSLAASVGDRVTMSCKSSQSLLYSSNQKNYLAWYQQKPGKSPKPLIYWASTRESGVPDRFTGSGSGTDFTLTISSVQAEDLAIYYCQQYYSYPWTFGGGTKLEIK | 0.000394 nM | 1.74e-07 s⁻¹ | 424000 M⁻¹ s⁻¹ | 0.016 nM | 7.96e-06 s⁻¹ | 500000 M⁻¹ s⁻¹ | 0.0145 nM | 6e-06 s⁻¹ | 416000 M⁻¹ s⁻¹ | 0.00554 nM | 2.67e-06 s⁻¹ | 481000 M⁻¹ s⁻¹ | – | – | – | – | – | – | – | –
humanized F151 variant HC3a/LC3a (antibody, human IgG1, V domains shown, also called hF151) VH: QIQLVQSGAEVKKPGASVKVSCKASGYSFTDYNIYWVRQAPGQGLEWIGYFDPYNGNTGYNQKFRGRATLTVDKSTSTAYMELRSLRSDDTAVYYCANYYRYDDHAMDYWGQGTLVTVSS VL: not shown | 0.00678 nM | 2.95e-06 s⁻¹ | 427000 M⁻¹ s⁻¹ | 0.0305 nM | 1.42e-05 s⁻¹ | 465000 M⁻¹ s⁻¹ | 0.0253 nM | 1.28e-05 s⁻¹ | 506000 M⁻¹ s⁻¹ | 0.00106 nM | 5.43e-07 s⁻¹ | 502000 M⁻¹ s⁻¹ | – | – | – | – | – | – | – | –
humanized F151 variant HC3b/LC3b (antibody, human IgG1, V domains shown, also called LC3bxHC3b) VH: QVQLVQSGAEVKKPGASVKVSCKASGYSFTDYNIYWVRQAPGQGLEWMGYFDPYNGNTGYNQKFRGRVTMTTDTSTSTAYMELRSLRSDDTAVYYCANYYRYDDHAMDYWGQGTLVTVSS VL: not shown | 0.0144 nM | 3.02e-06 s⁻¹ | 251000 M⁻¹ s⁻¹ | 40.5 nM | 0.00276 s⁻¹ | 70400 M⁻¹ s⁻¹ | 0.135 nM | 5.15e-05 s⁻¹ | 385000 M⁻¹ s⁻¹ | 0.526 nM | 0.000272 s⁻¹ | 539000 M⁻¹ s⁻¹ | – | – | – | – | – | – | – | –
I22 (antibody, V domains shown, Murine hybridoma antibody; Family 1) VH: EVQLQQSGAELVRSGASVKLSCTASGFNIKDYYMHWVKQRPEQGLEWIGWVDPENGDSDYAPKFQGKATMTADTSSNTVYLQFSSLTSEDTAVYYCNAFEYDGNYSPLDFWGQGTSVTVSS VL: DIVMTQSPSSLSVSAGEKVTMSCKSSQSLLNSGNQKNYLAWYQQKPGQPPKLLIYGASTRESGVPDRFTGSGSGTDFTLTISSVQAEDLAVYYCQNDHSYPLTFGAGTKLELK | – | – | – | – | – | – | – | – | – | – | – | – | 0.21 molar ratio | 0.07 molar ratio | 0.22 molar ratio | 0.0044 nM | 2.1e-05 s⁻¹ | 0.217 nM | 0.000319 s⁻¹ | FLIPR (nM), KD (15 nM) (kallidin [7]): 25 nM; FLIPR (nM), DAKD (50 nM) (desArg10kallidin [8]): 9.4 nM; Kd (RRPPGFSPF-biotin [11]): ≤ 0.00183 nM; koff (RRPPGFSPF-biotin [11]): ≤ 1e-06 s⁻¹; Kd (RRPPGFSPFR-biotin [13]): 0.00182 nM; koff (RRPPGFSPFR-biotin [13]): 1.03e-05 s⁻¹
I54 (antibody, V domains shown, Murine hybridoma antibody; Family 1; also called 154) VH: EVQLQQSGAELVRSGASVKLSCTASGFNIKDYYMHWVKQRPEQGLEWIGWVDPENGDSDYAPKFQGKATMTADTSSNTVYLQFSSLTSEDTAVYYCNAFEYDGNYSPLDFWGQGTSVTVSS VL: not shown | – | – | – | – | – | – | – | – | – | – | – | – | 0.35 molar ratio | 0.15 molar ratio | 0.3 molar ratio | 0.0112 nM | 3.88e-05 s⁻¹ | 0.00953 nM | 3.06e-05 s⁻¹ | FLIPR (nM), KD (15 nM) (kallidin [7]): 30 nM; FLIPR (nM), DAKD (50 nM) (desArg10kallidin [8]): 8.1 nM; Kd (RRPPGFSPF-biotin [11]): 0.0117 nM; koff (RRPPGFSPF-biotin [11]): 5.66e-05 s⁻¹; Kd (RRPPGFSPFR-biotin [13]): 0.00956 nM; koff (RRPPGFSPFR-biotin [13]): 6.04e-05 s⁻¹; binding result (biotin-RPPGFSPF): binds; binding result (RPPGFSPF-biotin): binds
C63 (antibody, V domains shown, Murine hybridoma antibody; Family 2) VH: EVKLEESGGGLVQPGGSMKLSCVASGFTFSNYWMNWVRQSPEKGLEWVAEIRSKSNNYATHYAESVKGRFTISRDDSKSSVYLQMNNLRAEDTGIYYCIGEDYGGDYWGQGTSVTVSS VL: DIVMSQSPSSLAVSVGEKVTMSCKSSQSLLYSSDQRNYLAWYQQRSGQSPKLLIYWASTRESGVPDRFTGSGSGTDFTLTISSVKAEDLAVYYCQQYYSYPYTFGGGTKLEIK | – | – | – | – | – | – | – | – | – | – | – | – | 5.85 molar ratio | 0.08 molar ratio | 0.23 molar ratio | 0.221 nM | 0.0001 s⁻¹ | 0.142 nM | 9.36e-05 s⁻¹ | binding result (RRPPGFSPF-biotin [11]): no binding; binding result (RRPPGFSPFR-biotin [13]): no binding; Kd (KRPPGFSPFR-biotin [14]): 0.221 nM; Kd (…-biotin [15]): 0.142 nM; binding result (…-biotin [16]): no binding; binding result [17]: no binding
